This is an account of results in patent US20210253716A1.

Experiment [1] addresses full length human ACVR1 (R206H) on HEK293/BRE-luc/hACVR1-R206H-clone H2 cells (human) (UniProt Q04771). In words: cell-based or functional assay.
For experiment [2], the target named is full length wild type human ACVR1 on HEK293/BRE-luc/hACVR1-wild type cells (human) (UniProt Q04771). Put plainly: flow cytometry, secondary antibody alone (66.6 nM run), HEK293/hACVR1-wt cells.
Experiment [3] has as its target full length human ACVR1 (R206H) on HEK293/BRE-luc/hACVR1-R206H-clone H2 cells (human) (UniProt Q04771). Put plainly: flow cytometry, secondary antibody alone (70 nM run), HEK293/hACVR1-R206H cells. Background: Flow cytometry measures light scatter and fluorescence of single cells or particles in a stream.
The target is the same in experiment [4]. Put plainly: flow cytometry, secondary antibody alone (66.6 nM run), HEK293/hACVR1-R206H cells.
Experiment [5] has as its target human ACVR1 extracellular domain expressed with a C-terminal mouse IgG2a Fc tag (human). In words: SPR (Biacore), mAb captured, 37 C. Background: Surface plasmon resonance follows binding to a sensor surface in real time, without labels.
Experiment [6] has as its target human ACVR1 extracellular domain expressed with a C-terminal myc-myc-hexahistidine tag (human). In words: SPR (Biacore), mAb captured, 37 C.
Experiment [7] deals with mouse ACVR1 extracellular domain expressed with a C-terminal myc-myc-hexahistidine tag (mouse). In words: SPR (Biacore), mAb captured, 37 C.
Experiment [8] addresses human ACVR1 extracellular domain expressed with a C-terminal mouse IgG2a Fc tag (human). Put plainly: SPR (Biacore), mAb captured, 25 C.
The target of experiment [9] is human ACVR1 extracellular domain expressed with a C-terminal myc-myc-hexahistidine tag (human). Put plainly: SPR (Biacore), mAb captured, 25 C.
Experiment [10] deals with mouse ACVR1 extracellular domain expressed with a C-terminal myc-myc-hexahistidine tag (mouse). Put plainly: SPR (Biacore), mAb captured, 25 C.
Experiment [11] has as its target full length wild type human ACVR1 on HEK293/BRE-luc/hACVR1-wild type cells (human) (UniProt Q04771). In words: flow cytometry, 66.6 nM antibody, HEK293/hACVR1-wt cells.
In experiment [12] the target is full length human ACVR1 (R206H) on HEK293/BRE-luc/hACVR1-R206H-clone H2 cells (human) (UniProt Q04771). In words: flow cytometry, 70 nM antibody, HEK293/hACVR1-R206H cells.
The target is the same in experiment [13]. In words: flow cytometry, 66.6 nM antibody, HEK293/hACVR1-R206H cells.

full length human ACVR1 (R206H) on HEK293/BRE-luc/hACVR1-R206H-clone H2 cells (human), sequence (Q04771 21-509 R206H): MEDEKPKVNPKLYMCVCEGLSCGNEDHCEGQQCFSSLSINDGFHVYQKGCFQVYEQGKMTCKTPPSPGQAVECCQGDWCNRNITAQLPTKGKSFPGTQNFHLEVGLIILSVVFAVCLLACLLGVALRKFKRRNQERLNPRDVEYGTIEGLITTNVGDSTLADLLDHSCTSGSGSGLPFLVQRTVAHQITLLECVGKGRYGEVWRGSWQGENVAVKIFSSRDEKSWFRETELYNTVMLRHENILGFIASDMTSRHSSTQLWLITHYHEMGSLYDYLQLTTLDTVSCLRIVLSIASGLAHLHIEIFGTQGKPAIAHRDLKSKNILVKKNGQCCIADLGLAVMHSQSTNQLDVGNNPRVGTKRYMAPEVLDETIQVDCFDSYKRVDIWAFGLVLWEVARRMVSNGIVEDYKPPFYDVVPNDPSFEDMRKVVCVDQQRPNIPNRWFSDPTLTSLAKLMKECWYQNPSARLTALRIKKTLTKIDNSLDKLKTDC
human ACVR1 extracellular domain expressed with a C-terminal myc-myc-hexahistidine tag (human), sequence (chain, as listed by the source limits assumed): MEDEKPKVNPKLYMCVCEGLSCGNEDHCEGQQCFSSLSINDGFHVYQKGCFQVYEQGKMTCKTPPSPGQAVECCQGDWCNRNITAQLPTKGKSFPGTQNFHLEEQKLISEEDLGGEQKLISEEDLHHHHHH
human ACVR1 extracellular domain expressed with a C-terminal mouse IgG2a Fc tag (human), sequence (chain, as listed by the source limits assumed): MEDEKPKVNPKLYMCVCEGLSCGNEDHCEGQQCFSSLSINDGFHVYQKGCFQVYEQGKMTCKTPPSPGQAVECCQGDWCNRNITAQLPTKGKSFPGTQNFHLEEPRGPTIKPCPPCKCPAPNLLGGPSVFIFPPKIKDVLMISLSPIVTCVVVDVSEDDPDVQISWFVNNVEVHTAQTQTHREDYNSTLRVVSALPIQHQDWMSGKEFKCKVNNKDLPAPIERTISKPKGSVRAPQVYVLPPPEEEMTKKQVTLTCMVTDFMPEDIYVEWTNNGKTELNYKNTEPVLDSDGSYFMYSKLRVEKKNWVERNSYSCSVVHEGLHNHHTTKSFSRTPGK
full length wild type human ACVR1 on HEK293/BRE-luc/hACVR1-wild type cells (human), sequence (Q04771 21-509): as the sequence (Q04771 21-509 R206H) above, with H186R counted along it
mouse ACVR1 extracellular domain expressed with a C-terminal myc-myc-hexahistidine tag (mouse), sequence (chain, as listed by the source limits assumed): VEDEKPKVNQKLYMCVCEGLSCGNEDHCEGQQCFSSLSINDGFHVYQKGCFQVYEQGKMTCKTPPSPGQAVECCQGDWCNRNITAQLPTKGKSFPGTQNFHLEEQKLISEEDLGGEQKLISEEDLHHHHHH

In turn, “human Activin A (R&D System 338-AC) (from UniProt P08476 311-426) (ligand)” came in with an EC50 [M], BRE-luc reporter activation by ligand in experiment [1] of 3.33e-10 M.

With “human Bone Morphogenetic Protein 7 (R&D System 354-BP/C) (from UniProt P18075 293-431) (ligand)”, in experiment [1], the EC50 [M], BRE-luc reporter activation by ligand (run with 2 nM hBMP7) amounted to 1.22e-09 M and the EC50 [M], BRE-luc reporter activation by ligand (run with 3 nM hBMP7) came to 2.97e-10 M.

Regarding “Alexa Fluor-647 conjugated secondary antibody (Jackson ImmunoResearch, anti-human #109-607-003), alone”, the MFI - Normalized to Unstained Control in [2], in [3] and in [4] was 1 fold each time.

Turning to “hIgG4 isotype control antibody (REGN1945)”, the 100 nM Ag Bound (RU) is -1 RU in experiment [5] and -2 RU in experiment [8]. In addition, the 900 nM or 100 nM Ag Bound (RU) in experiment [6] was 0 RU; in experiment [7], 0 RU; in [9], 1 RU; in [10], -2 RU. The MFI - Normalized to Unstained Control in experiment [11] was 3 fold; in experiment [12], 3 fold; in experiment [13], 1 fold.
